Reference: patent publication US20160312265, “USE OF NUCLEIC ACID AGENTS FOR ULTRA-SENSITIVE DIGITAL DETECTION AND QUANTIFICATION OF TARGET MOLECULES” (Aptitude Medical Systems, Inc., published 2016)

Biological target: TNFα (tumor necrosis factor alpha) (UniProt P01375 P01375:77-233)
Assay: antibody-capture / aptamer-detection sandwich in ELISA wells, 5 nM aptamer, eluted at 95 C and counted by digital PCR; PBS, 0.05% Tween-20, 2.5 mM MgCl2, 1 mM CaCl2 wash; no numerical result in text
Conditions: tags: Shenandoah Biotechnology 100-111; chain copies: 3 (inferred)
Protocol: The ELISA wells (Thermo Scientific, Catalog #: 15031) were functionalized with a TNFα antibody (eBioscience, Catalog #: 14-7349-85) at 5 μg/ml in PBS overnight at 4° C. Right before use, the ELISA wells were blocked with 300 μL AptaBuffer (PBS+0.05% Tween-20+2.5 mM MgCl₂+1 mM CaCl₂+1% BSA+0.5 mg/mL Dextran Sulfate+0.1 mg/mL Salmon Sperm DNA) with gentle shaking at ˜500 RPM for at least 30 minutes.
Next, test samples (50 μL) containing the protein of interest (TNFα, Shenandoah Biotechnology, Catalog #: 100-111) were added to the washed ELISA wells and incubated for 1 hour with gentle shaking After the target-capture incubation, the ELISA wells were washed once with PBSMCT (PBS+0.05% Tween-20+2.5 mM MgCl₂+1 mM CaCl₂) and 5 nM of the detection TNFα aptamer was added to the wells and incubated for 30 minutes with gentle shaking. The ELISA plate was then washed 4 times with 300 μl of PBS-MCT after the incubation with the detection aptamer. In an embodiment, the sequence of TNFα aptamer is 5′-[…] […]-3′.
For the elution step, 100 μL of PCR grade water was added to each ELISA well. After heating the plate at 95° C. for 10 minutes, we transfer the 100 μL of eluent containing the detection aptamers into a new tube. The eluents are diluted 10 fold before they are measured by the QuantStudio® 3D Digital PCR System from Life Technologies.

TNFα (tumor necrosis factor alpha), sequence (P01375 77-233, one chain of several): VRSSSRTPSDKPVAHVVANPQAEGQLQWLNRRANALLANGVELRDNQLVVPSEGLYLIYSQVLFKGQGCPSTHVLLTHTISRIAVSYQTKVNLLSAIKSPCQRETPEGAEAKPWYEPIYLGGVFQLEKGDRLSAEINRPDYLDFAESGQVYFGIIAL

B1: TNFα detection aptamer (ssDNA)
DNA: ATCCAGAGTGACGCAGCATGCTTAAGGGGGGGGCGGGTTAAGGGAGTGGGGAGGGAGCTGGTGTGGACACGGTGGCTTAGT
B1: binds.
